Positions count from the first letter of the chain named.
B1: Hu-1 (antibody, V domains shown)
VH: QVQLVESGGGVVQPGRSLRLSCAASGFTFSNYGMYWVRQAPGKGLEWVAVIWYDGSNKNYADSVKGRFTISRDNSKNTLNLQMNSLRAEDTAVYYCARRGYDILTGYDYYGMDVWGQGTTVTVSA
VL: QTVVTQEPSFSVSPGGTVTLTCGLSSGSVSTSYYPSWYQQTPGQAPRTLIYRTNTRSSGVPDRFSGSILGNKAALTISGAQAPDESNYYCVLYMGSGIWVFGGGTKLTVL
B2: Hu-10 (antibody, V domains shown)
VH: EVQLSESGGALVQPGESLRLSCAASGFTFSSYAMTWVRQAPGKGLEWVSSLSGSGRSTYYAASIKGRFTISRDNSKNTLYLQMSSLRAEDTAIYYCAKSLSYYHYYFDYWGQGTLVTVSS
VL: DIQLTQSPSFLSASVGDRVPITCRASQDISNYLAWYQQKPGKAPKLLIYSASTLQSGVPSRFSGSGSGTEFTLTISSLQPEDFASYHCQQVKTYPLTFGGGTKVEIK
B3: Hu-11 (antibody, V domains shown)
VH: QVHLVQSGAEVKKPGASVKVSCKASGYTFTSYYIHWVRQAPGQGLEWMGIINPSGGNTIYAQKFQGRVTMTRDTSTTTVYVELSSLRSEDTAVYYCARDHYDILTGYYPLYYGMDVWGQGTTVTVSS
VL: SYELTQPLSVSVALGQTARITCGGNNIGSKNVHWYQQKPGQAPVLVIYRDSNRPSGIPERFSGSKSGNTATLTISRAQAGDEADYYCQVWDSSTAVFGGGTQLTAL
B4: Hu-12 (antibody, V domains shown)
VH: EVRLLESGGGLVQPGGSLRLSCIASGFTFSSYVMSWVRQAPGKGLEWVSGISGSGGSTYYADSVKGRFTISRDNSKNTLYLQISSLRAEDTAVYYCTKAPTLWWFFDLWGRGTLVTVSS
VL: DIQVTQSPSFLSASVGDRVTITCRASQGIRSYLAWYQQKPGKAPKLLIYAASTLQSGVPSRFSGSGSGTEFTLTISSLLPEDFATYYCQQLNSYPLTFGGGTKVEIK
B5: Hu-13 (antibody, V domains shown)
VH: EVQLLESGGGLVQPGGSLRVACAASGFPLRSYAMSWVRQAPGKGLEWVSVTSGSGGSTYYADSVKGRFTISRDNSKSTVYLQMNSLRAEDTAVYYCAKDRGYDILTGYYDYFYGMDVWGQGTTVTVSS
VL: DIQMTQSPSSLSASVGDRVTITCRASQGIRNDLGWFQQKPGKAPKRLIYAASSLQSGVPSRFSGSGSGTEFTLTISSLQPEDFATYYCLQHNSYPYTFGQGTKLEIK
B6: Ms15 (antibody, V domains shown)
VH: EVQLQQSGPELVRPGASVKMSCRASGYTFTNYIIHWVKQKPGQGLEWIGYFNPYNDGTKYNEIFKDKATLTSDKSSSTAYMELRSLTSEDSAVYYCAKLRQERIAYWGQGTLVTVSA
VL: DIQMNQSPSSLSASLGDTITITCHVSQNIDVWLSWYQQKPGNIPKLLIYKASNLHTGVPSRFSGSGSGTGFTLTISSLQPEDIATYYCQQGQSYPLTFGAGTKLELK
B7: Ms17 (antibody, V domains shown)
VH: B6 VH with R13K, R23K, T58I, K59E, N61S, I63K, D66G, R84S, A97S, I104F
VL: B6 VL with V25A, D30N
B8: Ms18 (antibody, V domains shown)
VH: QVQLKESGPGLVAPSQSLSITCTVSGFSLISYGVHWVRQPPGKGLEWLGVIWAGGNTNYNSALMSRLSISKDNSKSQVFLKMNSLQTDDTAMYYCARVYYGNSFDYWGQGTTLTVSS
VL: DIVMTQSPSSLTVTAGEKVTMSCKSSQSLLNSGNQKNYLTWYQQKPGQPPKLLIYWASTRQSGVPDRFTGSGSGTDFSLTISSVQAEDLAVYYCHNDYTYPLTFGAGTKLELK
B9: Ms19 (antibody, V domains shown)
VH: EVQLQQSGPELVKPGASVKMSCKASGYTFTSYVIHWVKQKPGQGLEWIGYINPYNDGSKYNEKFKGKATLTSDKSSSTAYMELSSLTSEDSAVYYCAREGYGKRNALDYWGQGTSVTVSS
VL: DIVMTQSPSSLSVSAGERVTMSCKSSQSLLNSGNQKNYLAWYQQKPGQPPKLLIYGASTRESGVPDRFTGSGSGTDFTLIISSVQVEDLAVYYCQNDHFYPLTFGAGTKLELK
B10: Ms20 (antibody, V domains shown)
VH: EIQLQQSGPELMKPGASVKISCKASGYSFTSYYMHWVKQSHGKSLEWIGYFDPYNGGTNYNQKFKGKATLTADKSSSTAYMHLSSLTSEDSAVYYCACYRFFAVWGAGTTVTVSS
VL: B8 VL with Q61E, S78T, H95Q, T99S
B11: Ms21 (antibody, V domains shown)
VH: DVQLVESGGGLVQPGGSRKLSCAASGFTFSTFGMHWVRQAPEKGLEWVAFINGDSSSIYYADTVKGRFTISRDNPKNILFLQMTSLRSEDTAMYYCARFARGNSFDYWGQGTTLTVSS
VL: B8 VL with L30F, G47W, Q61E, S78T, S82T, A86T, H95Q, N96I, D97G
B12: Ms22 (antibody, V domains shown)
VH: QVQLKESGPGLVAPSQSLSITCTVSGFSLTSNGVHWVRQPPGKGLEWLGVIWAGGSTNYNSALMSRLSISKDNSKSQVFLKMNSLQTHDTAMYYCARDKYDGTGFDYWGQGTTLTVSS
VL: QIVLTQSPAIMSASPGEKVTMTCSASSSVSNMYWYQQKPGSSPRLLIYDTSNLASGVPVRFSGSGSGTSYSLTISRMEAEDAATYYCQQWSSYPYTFGGGTKLEIK
B13: Hu-4 (antibody, V domains shown)
VH: B1 VH with N31F, Y35H, A61V, N80Y, G100N, Y107R, A125S
VL: B1 VL with S25N, R52S, S78T, P83D, E85D, N87D
B14: Hu-7 (antibody, V domains shown)
VH: EVQLLESGGGLVQPGGSLRLSCAASGFTFSSYVMSWVRQAPGKGLEWVSTISGSGGSTYYADSVKDRFTISRDNSKNTLYLQMNSLRAEDTAVYYCGKPLLGGTGLWDYWGQGTLVTVSS
VL: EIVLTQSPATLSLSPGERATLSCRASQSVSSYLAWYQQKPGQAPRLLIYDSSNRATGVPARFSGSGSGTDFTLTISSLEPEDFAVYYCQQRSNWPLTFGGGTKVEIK
B15: Hu-8 (antibody, V domains shown)
VH: QVQLVESGGGVVQPGRSLRLSCAASGFTFSSYGMHWVRQAPGKGLEWVAVIWYDGSNKKYADSVKGRFTISRDNSKNTLYLQMNSLRAEDTAVYYCARRYDVLTAYPYYFYYNMDVWGPGTTVTVSS
VL: B1 VL with S25N, R52S, S78T, P83D, N87D

molecular target: T1, human claudin 18 isoform 2 (claudin 18.2) (human); assay: immunofluorescence imaging, CHO-CLDN18.2 cells, serial dilution
T1 construct: Recombinant on transfected CHO cells (CHO-CLDN18.2) or endogenous on tumor cell lines PATU8988S, NUGC-4, KATOIII; the cell line is named under assay; also called CLDN18.2
Procedure: (§1) The specific cellular binding affinity of anti-Claudin18.2 antibodies was tested on CHO-CLDN18.2 (transfected CHO cell expressing recombinant human CLDN18.2) and CHO-CLDN18.1 (transfected CHO cell expressing recombinant human CLDN18.1) cells. The cells were plated in complete media containing F12 with 10% FBS, then incubated overnight at 37° C., anti-Claudin18.2 antibodies were serial diluted and added to the assay plates, incubated at 4° C. for 2 hours, followed by fixing cells and further staining the cells for 30 minutes with Alexa Fluor® 488 Goat Anti-Human IgG (H+L) secondary antibody, invitrogen Cat #A-11013 for detection. The binding was assessed by imaging the cells and quantifying the fluorescence intensity using a Biotek Cytation.

Binder	EC50
B1	3.6 nM
B2	1.5 nM
B3	17 nM
B4	1.2 nM
B5	5.6 nM
B6	1.8 nM
B7	1.4 nM
B8	1.3 nM
B9	2.3 nM
B10	1.3 nM
B11	1.5 nM
B12	2.6 nM
B13	5.2 nM
B14	1 nM
B15	3.7 nM

molecular target: T1, human claudin 18 isoform 2 (claudin …); assay: cell-based or functional assay

Binder	endocytosis derived cell toxicity EC50, CHO-18.2 cells (anti-IgG Fc-MMAF co-internalization)
B6	1.15 nM
B7	0.81 nM
B8	1.39 nM
B9	1.36 nM
B10	1.07 nM
B11	0.95 nM
B12	1.61 nM

molecular target: T2, human claudin 18 isoform 1 (claudin 18.1) (human, UniProt P56856 1-261); assay: imaging, CHO-CLDN18.1 cells, single concentration (FIG. 3A)
T2 construct: Recombinant on transfected CHO cells (CHO-CLDN18.1); also called CLDN18.1
T2 sequence (P56856 whole entry, canonical isoform): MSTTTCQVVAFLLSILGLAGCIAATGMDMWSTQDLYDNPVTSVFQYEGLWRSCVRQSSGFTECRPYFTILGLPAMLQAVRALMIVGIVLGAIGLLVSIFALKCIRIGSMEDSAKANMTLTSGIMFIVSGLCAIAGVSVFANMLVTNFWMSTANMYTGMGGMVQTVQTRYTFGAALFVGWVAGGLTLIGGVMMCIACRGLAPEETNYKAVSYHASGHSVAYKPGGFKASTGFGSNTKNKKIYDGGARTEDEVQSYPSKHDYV
Procedure: as §1

Binder	binding result
B6	no binding (tested: 10 µg/ml)
B7	no binding (tested: 10 µg/ml)
B8	no binding (tested: 10 µg/ml)
B9	no binding (tested: 10 µg/ml)
B10	no binding (tested: 10 µg/ml)
B11	no binding (tested: 10 µg/ml)
B12	no binding (tested: 10 µg/ml)

molecular target: T1, human claudin 18 isoform 2 (claudin …); assay: imaging, PATU8988S cells (endogenous CLDN18.2); ++ = EC50 between 20 nM and 100 nM
Procedure: (§2) Tumor cells were plated in complete media containing RPMI1640 with +10% FBS, then incubated overnight at 37° C., Claudin18.2 antibodies were serial diluted and added to the assay plates, incubated at 4° C. for 2 hours, followed by fixing cells and further staining the cells for 30 minutes with Alexa Fluor® 488 Goat Anti-Human IgG (H+L) secondary antibody (invitrogen Cat #A-11013) for detection. The binding was assessed by imaging the cells and quantifying the fluorescence intensity using a Biotek Cytation.

Binder	EC50
B1	20 to 100 nM
B3	20 to 100 nM
B5	20 to 100 nM
B13	20 to 100 nM
B15	20 to 100 nM

molecular target: T2, human claudin 18 isoform 1 (claudin …); assay: immunofluorescence imaging on CHO cells expressing human CLDN18.1, antibody at 10 µg/ml
Procedure: as §1

Binder	binding result
B1	no binding (tested: 10 µg/ml)
B2	no binding (tested: 10 µg/ml)
B4	no binding (tested: 10 µg/ml)
B13	no binding (tested: 10 µg/ml)
B14	no binding (tested: 10 µg/ml)

molecular target: T1, human claudin 18 isoform 2 (claudin …); assay: imaging, PATU8988S cells (endogenous CLDN18.2); ++++ = EC50 less than 2 nM
Procedure: as §2

Binder	EC50
B2	< 2 nM
B4	< 2 nM
B14	< 2 nM

molecular target: T1, human claudin 18 isoform 2 (claudin …); assay: cell-based or functional assay; remark: another data set of the same source

Binder	endocytosis derived cell toxicity EC50, CHO-18.2 cells (anti-IgG Fc-MMAF co-internalization)
B1	1.61 nM
B2	0.85 nM
B3	1.31 nM
B4	2.01 nM
B5	2.16 nM
B13	1.55 nM
B14	1.65 nM
B15	1 nM

molecular target: T1, human claudin 18 isoform 2 (claudin …); assay: imaging, PATU8988S cells (endogenous CLDN18.2); +++ = EC50 between 2 nM and 20 nM

Binder	EC50
B6	2 to 20 nM
B7	2 to 20 nM
B8	2 to 20 nM
B9	2 to 20 nM
B10	2 to 20 nM
B11	2 to 20 nM
B12	2 to 20 nM

molecular target: T1, human claudin 18 isoform 2 (claudin …); assay: cell-based or functional assay; remark: another data set of the same source

Binder	ADCC EC50, CHO-18.2 target cells (mouse FcγRIV reporter bioluminescence)
B1	0.77 nM
B2	1.25 nM
B3	1.51 nM
B4	2.26 nM
B5	1.17 nM
B13	2.39 nM
B14	3.52 nM
B15	1.42 nM

Source: US20230067757A1 (NOVAROCK BIOTHERAPEUTICS, published 2023)
